Assay results published in paper PMC12089286, “LLPS REDIFINE allows the biophysical characterization of multicomponent condensates without tags or labels”.

What was measured:
PTBP1 [1] = molecular target: T1, PTBP1 (UniProt P26599 1-557); experiment: EMSA; 1.5 mM Mg2+, 100 mM KCl, pH 8.0; EMSA: 20 mM HEPES pH 8.0, 100 mM KCl, 1.5 mM MgCl2, 10% glycerol, 0.5 mM DTT, native 10% TBE gel; NMR: PTBP1 in 10 mM sodium phosphate pH 6.5, 20 mM NaCl; Nu in 20 mM sodium phosphate pH 6.0, 50 mM NaCl; 298 K; details: protein: recombinant; tags: pET28a; label: 5'-32P (EMSA); none (NMR); single-stranded
PTBP1 [2] = molecular target: T1, PTBP1; experiment: NMR diffusion (REDIFINE); 1:1 soluble complex; koff 1.41 s-1, kon 3e6 M-1 s-1; 10 mM phosphate pH 6.5, 20 mM NaCl; EMSA: 20 mM HEPES pH 8.0, 100 mM KCl, 1.5 mM MgCl2, 10% glycerol, 0.5 mM DTT, native 10% TBE gel; NMR: PTBP1 in 10 mM sodium phosphate pH 6.5, 20 mM NaCl; Nu in 20 mM sodium phosphate pH 6.0, 50 mM NaCl; 298 K; details: protein: recombinant; tags: pET28a; label: 5'-32P (EMSA); none (NMR); single-stranded
Nu(247-419) = Nu(247-419) (SARS-CoV-2, UniProt P0DTC9 247-419); experiment: NMR (1D, DOSY); details: protein: recombinant; chain copies: 2; label: none (NMR); 3' Cy5 (microscopy); hairpin

Row | Binder | Kd (PTBP1 [1]) [nM] | Kd (PTBP1 [2]) [nM] | binding result (Nu(247-419))
1 | GGGAGAUCUCUAAAAAUCUCUAAAAAUCUCUAAAAA (ssRNA) [3xUCUCU RNA] | 490 ± 20 | 500 ± 100 | 
2 | GGUUCACCGAGGCCACGCGGAGUACGAUCGAGUGUACAGUGAACC (structured_RNA) [s2m RNA] |  |  | binds
